Source: US20030186419

Target: rMBL-rMASP-2 complexes, P11226
Sequence (P11226 21-248, chain 1 of 2): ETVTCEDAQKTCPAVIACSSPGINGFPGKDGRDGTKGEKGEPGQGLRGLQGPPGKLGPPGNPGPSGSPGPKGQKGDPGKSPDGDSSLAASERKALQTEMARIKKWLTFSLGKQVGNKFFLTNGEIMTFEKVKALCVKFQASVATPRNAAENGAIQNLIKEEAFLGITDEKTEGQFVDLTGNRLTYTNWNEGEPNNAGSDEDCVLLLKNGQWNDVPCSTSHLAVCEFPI
Sequence (chain, as listed by the source, chain 2 of 2): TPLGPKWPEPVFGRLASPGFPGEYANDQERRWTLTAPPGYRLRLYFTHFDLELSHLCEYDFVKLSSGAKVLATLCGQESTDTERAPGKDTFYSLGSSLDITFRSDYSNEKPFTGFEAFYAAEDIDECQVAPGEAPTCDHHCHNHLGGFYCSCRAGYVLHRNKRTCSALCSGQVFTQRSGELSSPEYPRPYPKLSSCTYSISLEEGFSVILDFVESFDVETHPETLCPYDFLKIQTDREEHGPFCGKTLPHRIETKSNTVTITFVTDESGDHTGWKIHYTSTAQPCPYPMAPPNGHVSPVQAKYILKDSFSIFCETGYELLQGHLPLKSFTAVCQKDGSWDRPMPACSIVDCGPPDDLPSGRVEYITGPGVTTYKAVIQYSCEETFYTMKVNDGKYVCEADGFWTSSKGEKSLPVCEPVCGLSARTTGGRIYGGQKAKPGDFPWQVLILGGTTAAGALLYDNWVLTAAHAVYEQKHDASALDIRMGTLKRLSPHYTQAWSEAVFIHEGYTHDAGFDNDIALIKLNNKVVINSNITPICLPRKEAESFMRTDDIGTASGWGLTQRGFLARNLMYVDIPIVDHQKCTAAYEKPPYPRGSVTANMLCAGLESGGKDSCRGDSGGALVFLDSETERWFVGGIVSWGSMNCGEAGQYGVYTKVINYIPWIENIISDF

## GSGALLSASWILTAAHVLRSQRRDTTVIPVSKEHVTVYL [rMASP-3 (recombinant MASP-3 from HEK 293EBNA cells transfected with the pMASP-3; 4.1 construct)]
  activation of C4 by rMBL-rMASP-2 complexes (bound C4 on mannan-coated wells, Eu-labelled anti-C4 antibody): The activity of rMBL-rMASP-2 complexes was also inhibited by rMASP-3
